Experimental data taken from patent publication US20260217789A1 (GLYCOERA, published 2026).

Legend:
[1] = target: T1, PLA2R glycoengineered polypeptide (human, UniProt Q13018 21-505, N-glycans, mainly A2GalNAc2 (83.6% of total N-glycan); six N-glycosylation sites: N93, N315, N433, N454, N473 and one in the C-terminal glycotag; occupancy per Table 2: N93 >99%, N315 <10%, N433 <1%, …); assay: SPR, Biacore 8K, single cycle kinetics, heterogeneous binding model; biotinylated ASGPR1 on streptavidin, 2 mM CaCl2 (FIG. 1C)
T1 construct: Secreted from glycoengineered Leishmania tarentolae (cell line StCGP6199) and purified by IMAC; also called exemplary PLA2R glycoengineered polypeptide; glycoengineered PLA2R polypeptide
From the text: (§1) Methods: Surface plasmon resonance (SPR) was used to measure binding kinetics (i.e., ka, kd, KD, equilibrium) of a glycoengineered PLA2R polypeptide. SPR data was collected with a Biacore 8K instrument to characterize interactions between the PLA2R glycoengineered polypeptide and surrogate anti-PLA2R antibody 12-6-5 in multiple assay formats. The surrogate antibody was either captured using the Fc tag or covalently immobilized on the sensor surface, and the PLA2R glycoengineered polypeptide construct was injected in increasing concentrations in a single cycle kinetics experiment. The contact time was 300 s and the dissociation time was 1200 s. The data was fit to a 1:1 binding model with the global fitting software provided by Cytivia. For ASGPR1 binding experiments, biotinylated recombinant human ASGPR1 (Acro Biosystems) was immobilized using streptavidin capture, and increasing concentrations of the PLA2R glycoengineered polypeptide were injected in a single cycle kinetics experiment. ASGPR1 assays included 2 mM CaCl₂) in the running buffer. The data were fit using a heterogeneous binding model using the Cytvia provided software.

[2] = target: T1, PLA2R glycoengineered polypeptide; assay: SPR (Biacore 8K), single cycle kinetics, immobilized ligand ASGPR1 1ug/mL (biotinylated, streptavidin capture), heterogeneous binding model; column kd1 (first component)
From the text: as §1

[3] = target: T1, PLA2R glycoengineered polypeptide; assay: SPR, Biacore 8K, steady state KD; biotinylated ASGPR1 on streptavidin, 2 mM CaCl2 (FIG. 1C)
From the text: as §1

[4] = target: T1, PLA2R glycoengineered polypeptide; assay: SPR (Biacore 8K), single cycle kinetics, immobilized ligand ASGPR1 1ug/mL (biotinylated, streptavidin capture), heterogeneous binding model; column KD1 (first component)
From the text: as §1

[5] = target: T1, PLA2R glycoengineered polypeptide; assay: SPR (Biacore 8K), single cycle kinetics, immobilized ligand ASGPR1 1ug/mL (biotinylated, streptavidin capture), heterogeneous binding model; column ka1 (first component)
From the text: as §1

T1 sequence (Q13018 other isoform, or with tags, fused parts or gaps): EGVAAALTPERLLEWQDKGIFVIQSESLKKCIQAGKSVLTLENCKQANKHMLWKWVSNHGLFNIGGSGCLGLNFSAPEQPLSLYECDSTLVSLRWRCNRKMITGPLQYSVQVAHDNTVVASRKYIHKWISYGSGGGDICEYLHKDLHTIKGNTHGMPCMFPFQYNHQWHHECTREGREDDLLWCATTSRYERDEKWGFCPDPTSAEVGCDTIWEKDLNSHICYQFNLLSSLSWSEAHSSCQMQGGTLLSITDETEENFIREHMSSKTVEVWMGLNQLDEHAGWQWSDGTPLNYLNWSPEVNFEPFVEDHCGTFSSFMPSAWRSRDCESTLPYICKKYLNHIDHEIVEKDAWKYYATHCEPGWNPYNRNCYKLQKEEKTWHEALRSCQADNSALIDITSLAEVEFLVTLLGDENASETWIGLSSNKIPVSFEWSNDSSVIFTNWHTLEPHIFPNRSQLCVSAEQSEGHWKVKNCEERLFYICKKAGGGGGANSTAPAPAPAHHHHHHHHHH

koff [1]: 0.104 s⁻¹
kon [1]: 80900 M⁻¹ s⁻¹
koff [2]: 0.00294 s⁻¹
Kd [3]: 1280 nM
Kd [4]: 7 nM
kon [5]: 421000 M⁻¹ s⁻¹
B1: biotinylated recombinant human ASGPR1 (Acro Biosystems) (receptor, UniProt P07306 62-291, looked up)
chain: QNSQLQEELRGLRETFSNFTASTEAQVKGLSTQGGNVGRKMKSLESQLEKQQKDLSEDHSSLLLHVKQFVSDLRSLSCQMAALQGNGSERTCCPVNWVEHERSCYWFSRSGKAWADADNYCRLEDAHLVVVTSWEEQKFVQHHIGPVNTWMGLHDQNGPWKWVDGTDYETGFKNWRPEQPDDWYGHGLGGGEDCAHFTDDGRWNDDVCQRPYRWVCETELDKASQEPPLL
modifications: biotinylated
notes: It was immobilized by streptavidin capture
